Results as given in patent publication US20210030857A1 (NGM BIOPHARMACEUTICALS, published 2021).

T1: mouse beta klotho expressed on cells (mouse (Mus musculus), UniProt Q99N32 1-1043)
T1 construct: also called Mouse KLB
T1 sequence: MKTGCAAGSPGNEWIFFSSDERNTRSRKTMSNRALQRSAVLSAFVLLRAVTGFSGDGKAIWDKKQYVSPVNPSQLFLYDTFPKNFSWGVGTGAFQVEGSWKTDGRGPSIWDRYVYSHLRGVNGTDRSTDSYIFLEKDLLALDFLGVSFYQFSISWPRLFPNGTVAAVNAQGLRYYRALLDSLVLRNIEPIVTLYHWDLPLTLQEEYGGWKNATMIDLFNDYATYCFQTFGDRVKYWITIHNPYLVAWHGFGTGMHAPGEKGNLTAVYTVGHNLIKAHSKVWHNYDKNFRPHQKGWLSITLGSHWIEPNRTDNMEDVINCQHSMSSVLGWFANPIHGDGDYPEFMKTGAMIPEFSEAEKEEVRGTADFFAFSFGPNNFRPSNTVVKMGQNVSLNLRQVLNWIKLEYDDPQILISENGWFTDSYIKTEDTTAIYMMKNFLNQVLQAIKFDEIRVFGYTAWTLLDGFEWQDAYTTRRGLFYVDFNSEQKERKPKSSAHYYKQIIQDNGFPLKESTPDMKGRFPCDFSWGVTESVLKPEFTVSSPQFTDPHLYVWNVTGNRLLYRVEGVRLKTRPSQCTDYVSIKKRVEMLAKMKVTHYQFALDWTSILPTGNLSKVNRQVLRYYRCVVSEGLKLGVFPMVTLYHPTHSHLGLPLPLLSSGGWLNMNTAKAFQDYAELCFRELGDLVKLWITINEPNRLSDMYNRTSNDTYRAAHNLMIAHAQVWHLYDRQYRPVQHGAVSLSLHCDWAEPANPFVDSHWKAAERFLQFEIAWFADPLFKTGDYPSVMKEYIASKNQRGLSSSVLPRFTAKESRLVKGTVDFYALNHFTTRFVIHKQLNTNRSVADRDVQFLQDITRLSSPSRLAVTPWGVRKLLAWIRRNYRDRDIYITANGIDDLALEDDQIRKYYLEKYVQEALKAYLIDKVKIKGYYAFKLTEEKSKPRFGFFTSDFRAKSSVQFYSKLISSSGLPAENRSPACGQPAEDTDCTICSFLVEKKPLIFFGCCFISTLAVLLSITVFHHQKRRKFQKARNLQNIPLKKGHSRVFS

B1: humanized 5H23 antibody (VH SEQ ID NO: 271 and VL SEQ ID NO: 276) (antibody, V domains shown)
VH: QVQLQQSGAEVKKPGASVKVSCKASGYTFTSYDINWVRQAPGQGLEWIGWIYPGDGSTKYNEKFKGKATITRDTSASTAYMELSSLRSEDTAVYFCARSDYYGSRSFAYWGQGTLVTVSS
VL: DIVMTQSPDSLAVSLGERATINCRASKSVSTSGYVYMHWYQQKPGQPPKLLIYLASYLESGVPDRFSGSGSGTDFTLTISSVQAEDVAVYYCQHSRDLTFPFGGGTKLEIK
notes: also called h5H23; h5H23 (Prep 1)
B2: negative control antibody, anti-keyhole limpet hemocyanin (KLH) antibody (antibody, human IgG1, kappa, V domains shown)
VH: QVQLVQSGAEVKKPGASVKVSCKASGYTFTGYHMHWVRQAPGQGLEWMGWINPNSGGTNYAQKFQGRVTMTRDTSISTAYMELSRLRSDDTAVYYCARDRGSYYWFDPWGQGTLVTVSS
VL: DIQMTQSPSSLSASVGDRVTITCRASQGIRNDLGWYQQKPGKAPKRLIYAASSLQSGVPSRFSGSGSGTEFTLTISSLQPEDFATYYCLQHNSYPLTFGGGTKVEIKR
notes: also called Neg; Control; anti-KLH antibody

Legend:
Assay in all cases: FACS on transfected Expi293 cells, antibody 1 µg/ml, labelled anti-human Fc
[1] = target: T2, mouse-human KLB chimeric protein (mouse KLB (M1-F506)-human KLB (S509-S1044)) on cells (mouse/human chimera, UniProt Q86Z14 1-1044 (human entry))
T2 construct: also called Mouse-Human chimeric KLB; chMoHu
Method: (§1) Studies were performed in order to localize the binding site on human KLB of anti-beta klotho antibodies in the 5H23 epitope bin, including 5H23 as described in Example 3, with sequences shown in Tables 1-10 and FIGS. 1-3, and human anti-beta klotho antibodies in the 5H23 epitope bin, such as humanized 5H23 antibodies (e.g., VH SEQ ID NO: 271 and VL SEQ ID NO: 276). For example, FACS-based binding assays for domain mapping were performed on Expi293 cells (Life Technologies, A14635) that were transiently transfected with plasmids encoding variants of KLB: human, mouse, cynomolgus, a chimeric version in which the KL1 domain sequence of mouse KLB (M1-F506) replaces the KL1 domain of human KLB (M1-F508) to create mouse-human KLB (SEQ ID NO: 376), and a second chimera in which the human KL1 sequence (M1-F508) replaces the KL1 domain of mouse KLB (M1-F506) to create human-mouse KLB (SEQ ID NO: 374). Additionally, the expression vector pYD7 harboring no KLB sequence was transfected as a negative control.
(§2) In some studies, binding of a purified sample of a humanized 5H23 antibody (e.g., VH SEQ ID NO: 271 and VL SEQ ID NO: 276) to KLB variants was determined by FACS analysis. […] After washing with PBS/1% BSA/0.1% azide, transfected cells were then co-incubated with labeled anti-human Fc (Jackson lmmunoresearch) for 30 minutes at 4° C. After washing with PBS/1% BSA/0.1% azide, cells were acquired on flow cytometer (FACS Calibur) and analyzed by cytometric software (FlowJo). To display the resulting data, graphs plotting the number of cells as a function of fluorescence intensity were generated, and the median fluorescence intensity (MFI) was determined for each sample as shown in Table 30.

[2] = target: T3, human-mouse KLB chimeric protein (human KLB (M1-F508)-mouse KLB (P507-S1043)) on cells (human/mouse chimera, UniProt Q99N32 1-1043 (mouse entry))
T3 construct: also called Human-Mouse chimeric KLB; chHuMo
Method: as §1, §2

[3] = target: T1, mouse beta klotho expressed on cells
Method: as §1, §2

Row | Binder | Mean Fluorescence intensity [1] [MFI] | Mean Fluorescence intensity [2] [MFI] | Mean Fluorescence intensity [3] [MFI]
1 | B1 | 26.1 | 9.29 | 14.2
2 | B2 | 5.44 | 6.01 | 9.59
